What follows are sequences tested on Escherichia coli TOP10 (assay: shrunken log2 fold change of peptide-encoding DNA abundance (4.5 h post-induction vs induction); higher = less antimicrobial activity (less host growth inhibition)). Conditions: time post-induction: 4.5 h; library: site-saturation at positions 5, 18, 19, 20.
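Further: peptides expressed intracellularly from a pBAD plasmid library in pooled LB shake-flask culture, induced with 0.3% L-arabinose, DNA abundance read by NGS, three biological replicates, DESeq2 with apeglm shrinkage.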

Sequence | shrunken log2 fold change
RRIRERPPRLPRPRPRPGCIPRP | -1.12
RRIRQRPPRLPRPRPRPDKDPRP | -0.0597
RRIRVRPPRLPRPRPRPNIIPRP | -0.303
RRIRSRPPRLPRPRPRPPMYPRP | -0.549
RRIRSRPPRLPRPRPRPCFHPRP | -0.749
RRIRLRPPRLPRPRPRPFSFPRP | -0.388
RRIRARPPRLPRPRPRPSLCPRP | 0.276
RRIRDRPPRLPRPRPRPLWCPRP | -0.15
RRIRGRPPRLPRPRPRPHYWPRP | 0.12
RRIRVRPPRLPRPRPRPSPSPRP | -0.017
RRIRIRPPRLPRPRPRPVQYPRP | -0.106
RRIRPRPPRLPRPRPRPSKIPRP | -0.129
RRIRGRPPRLPRPRPRPTEMPRP | 0.814
RRIRKRPPRLPRPRPRPFLTPRP | -0.206
RRIRNRPPRLPRPRPRPNRLPRP | 0.0192
RRIRNRPPRLPRPRPRPLDAPRP | 0.0657
RRIRWRPPRLPRPRPRPQEGPRP | -0.00127
RRIRARPPRLPRPRPRPRYEPRP | 0.0403
RRIRNRPPRLPRPRPRPTYFPRP | -0.147
RRIRPRPPRLPRPRPRPCCPPRP | -0.377
RRIRCRPPRLPRPRPRPSKFPRP | -0.17
RRIRWRPPRLPRPRPRPHCDPRP | 0.135
RRIRARPPRLPRPRPRPMIIPRP | -0.0301
RRIRCRPPRLPRPRPRPNFDPRP | -0.179
RRIRCRPPRLPRPRPRPDNTPRP | 0.881

Sequence | shrunken log2 fold change
RRIRPRPPRLPRPRPRPNFRPRP | 0.156
RRIRARPPRLPRPRPRPMGHPRP | 0.062
RRIRARPPRLPRPRPRPHATPRP | 1.01
RRIRKRPPRLPRPRPRPQNIPRP | -0.21
RRIRLRPPRLPRPRPRPTFDPRP | -0.173
RRIRARPPRLPRPRPRPHRAPRP | 0.216
RRIRIRPPRLPRPRPRPDHDPRP | -0.0366
RRIRRRPPRLPRPRPRPSIHPRP | -0.337
RRIRPRPPRLPRPRPRPERKPRP | 0.489
RRIRPRPPRLPRPRPRPLFPPRP | -0.0198
RRIRVRPPRLPRPRPRPGIPPRP | -0.103
RRIRVRPPRLPRPRPRPYRHPRP | -1.08
RRIRPRPPRLPRPRPRPGTLPRP | 0.0426
RRIRQRPPRLPRPRPRPEKTPRP | -0.0176
RRIRKRPPRLPRPRPRPPEHPRP | 0.197
RRIRKRPPRLPRPRPRPSYSPRP | -0.413
RRIRARPPRLPRPRPRPFVAPRP | 0.254
RRIRWRPPRLPRPRPRPDVWPRP | 0.373
RRIRKRPPRLPRPRPRPPSIPRP | 0.0697
RRIRIRPPRLPRPRPRPIHPPRP | -0.208
RRIRFRPPRLPRPRPRPYHSPRP | -0.0452
RRIRRRPPRLPRPRPRPDLCPRP | 0.00591
RRIRNRPPRLPRPRPRPAVPPRP | -0.165
RRIRSRPPRLPRPRPRPGRFPRP | 0.406
RRIRPRPPRLPRPRPRPHSAPRP | 0.31

Sequence | shrunken log2 fold change
RRIRHRPPRLPRPRPRPKRHPRP | 0.0834
RRIRERPPRLPRPRPRPMMRPRP | 0.169
RRIRQRPPRLPRPRPRPIKEPRP | -0.023
RRIRIRPPRLPRPRPRPCGYPRP | -0.01
RRIRLRPPRLPRPRPRPKCYPRP | -0.414
RRIRFRPPRLPRPRPRPYMHPRP | -0.72
RRIRERPPRLPRPRPRPVYFPRP | -0.207
RRIRRRPPRLPRPRPRPNMFPRP | -0.047
RRIRIRPPRLPRPRPRPNHTPRP | -0.541
RRIRFRPPRLPRPRPRPPEWPRP | 0.139
RRIRERPPRLPRPRPRPNDDPRP | -0.121
RRIRWRPPRLPRPRPRPHYKPRP | -0.631
RRIRQRPPRLPRPRPRPYRDPRP | -0.204
RRIRKRPPRLPRPRPRPWHVPRP | -1.06
RRIRARPPRLPRPRPRPMAFPRP | 0.0104
RRIRLRPPRLPRPRPRPYEAPRP | -1.12
RRIRNRPPRLPRPRPRPRADPRP | 0.327
RRIRMRPPRLPRPRPRPSMNPRP | -0.287
RRIRHRPPRLPRPRPRPQPRPRP | 0.282
RRIRARPPRLPRPRPRPFGMPRP | 0.0196
RRIRIRPPRLPRPRPRPNLRPRP | -0.117
RRIRRRPPRLPRPRPRPLISPRP | -0.111
RRIRERPPRLPRPRPRPHNLPRP | -0.47
RRIRIRPPRLPRPRPRPCDFPRP | -0.834
RRIRQRPPRLPRPRPRPRMKPRP | -0.249

Sequence | shrunken log2 fold change
RRIRQRPPRLPRPRPRPWCFPRP | -0.263
RRIRLRPPRLPRPRPRPMGSPRP | -0.000911
RRIRFRPPRLPRPRPRPQELPRP | -0.0341
RRIRQRPPRLPRPRPRPYGQPRP | -0.239
RRIRPRPPRLPRPRPRPRGIPRP | -0.176
RRIRIRPPRLPRPRPRPKHEPRP | 0.0924
RRIRQRPPRLPRPRPRPFRRPRP | 0.0238
RRIRVRPPRLPRPRPRPYLVPRP | -0.511
RRIRLRPPRLPRPRPRPVCGPRP | 0.227
RRIRIRPPRLPRPRPRPYHWPRP | -0.275
RRIRYRPPRLPRPRPRPFHVPRP | -0.184
RRIRRRPPRLPRPRPRPQEWPRP | -0.0466
RRIRMRPPRLPRPRPRPEEMPRP | 3.07
RRIRQRPPRLPRPRPRPVKQPRP | -0.0153
RRIRYRPPRLPRPRPRPLQPPRP | -0.499
RRIRQRPPRLPRPRPRPSDIPRP | -0.0397
RRIRDRPPRLPRPRPRPIIEPRP | 0.479
RRIRFRPPRLPRPRPRPCLQPRP | 0.0975
RRIRERPPRLPRPRPRPFGTPRP | -0.135
RRIRHRPPRLPRPRPRPLVVPRP | -0.0489
RRIRLRPPRLPRPRPRPNNLPRP | -0.177
RRIRYRPPRLPRPRPRPPTIPRP | -0.424
RRIRWRPPRLPRPRPRPMAPPRP | 0.0741
RRIRFRPPRLPRPRPRPPAKPRP | 0.633
RRIRIRPPRLPRPRPRPSAEPRP | -0.0944

Sequence | shrunken log2 fold change
RRIRCRPPRLPRPRPRPWVVPRP | -0.168
RRIRPRPPRLPRPRPRPMWAPRP | -0.201
RRIRMRPPRLPRPRPRPRQFPRP | 0.582
RRIRFRPPRLPRPRPRPHAAPRP | 0.062
RRIRFRPPRLPRPRPRPGDMPRP | -0.311
RRIRARPPRLPRPRPRPFLWPRP | -0.0716
RRIRNRPPRLPRPRPRPNHFPRP | -0.0479
RRIRFRPPRLPRPRPRPFVIPRP | -0.479
RRIRLRPPRLPRPRPRPKYNPRP | -0.703
RRIRHRPPRLPRPRPRPATIPRP | -0.281
RRIRHRPPRLPRPRPRPVSKPRP | -0.0396
RRIRVRPPRLPRPRPRPEHPPRP | 0.0168
RRIRMRPPRLPRPRPRPGSMPRP | 0.668
RRIRYRPPRLPRPRPRPYPCPRP | -0.268
RRIRERPPRLPRPRPRPNKDPRP | -0.321
RRIRNRPPRLPRPRPRPVAMPRP | -0.198
RRIRERPPRLPRPRPRPLPKPRP | 0.222
RRIRERPPRLPRPRPRPGHDPRP | -0.449
RRIRSRPPRLPRPRPRPTHMPRP | 0.188
RRIRARPPRLPRPRPRPSIDPRP | -0.0466
RRIRTRPPRLPRPRPRPIVSPRP | -0.0631
RRIRIRPPRLPRPRPRPMGAPRP | -0.341
RRIRRRPPRLPRPRPRPLDSPRP | -0.106
RRIRGRPPRLPRPRPRPGFFPRP | 0.542
RRIRRRPPRLPRPRPRPIAPPRP | 0.702

Sequence | shrunken log2 fold change
RRIRQRPPRLPRPRPRPTQIPRP | 0.223
RRIRCRPPRLPRPRPRPQGYPRP | -0.0448
RRIRERPPRLPRPRPRPLPGPRP | -0.165
RRIRERPPRLPRPRPRPMTFPRP | -0.081
RRIRCRPPRLPRPRPRPWQNPRP | -0.124
RRIRERPPRLPRPRPRPTKAPRP | 0.043
RRIRTRPPRLPRPRPRPQRCPRP | 0.00192
RRIRHRPPRLPRPRPRPRCSPRP | -0.236
RRIRQRPPRLPRPRPRPETVPRP | -0.0886
RRIRSRPPRLPRPRPRPDCDPRP | 0.152
RRIRVRPPRLPRPRPRPKIQPRP | -0.0896
RRIRKRPPRLPRPRPRPLRTPRP | 0.727
RRIRCRPPRLPRPRPRPRTFPRP | -0.24
RRIRCRPPRLPRPRPRPRCLPRP | -0.32
RRIRHRPPRLPRPRPRPGSNPRP | 0.0117
RRIRGRPPRLPRPRPRPPYDPRP | 0.0844
RRIRGRPPRLPRPRPRPLEWPRP | 1.03
RRIRNRPPRLPRPRPRPKVGPRP | 0.148
RRIRARPPRLPRPRPRPNFSPRP | -0.0677
RRIRIRPPRLPRPRPRPVLQPRP | 0.103
RRIRCRPPRLPRPRPRPAMGPRP | -0.0638
RRIRERPPRLPRPRPRPVRLPRP | 0.0832
RRIRCRPPRLPRPRPRPSQQPRP | -0.0757
RRIRQRPPRLPRPRPRPGYVPRP | -0.116
RRIRNRPPRLPRPRPRPGGWPRP | 0.662

From the supplement of paper PMC9112550, “Optimization of the antimicrobial peptide Bac7 by deep mutational scanning” (BMC Biology, 2022)
